The source of these data is publication PMC5551578 (The Journal of Experimental Medicine, 2017).

The target in test [1] is T1, H1N1 HA (A/California/04/2009) (Influenza A virus A/California/04/2009 …, UniProt C3W5S1, strain).
T1 construct: source: bought: Sino Biological
Nature of the test: SPR. The conditions noted are these: both partners purified.

For another test, the target named is tetanus toxoid (Clostridium tetani, production strain …, UniProt P04958).
In test [2] the target is T2, H1N1 HA (A/California/04/2009) (Influenza A virus A/California/04/2009 …, UniProt C3W5S1, strain).
T2 construct: source: bought: Sino Biological
Nature of the test: ELISA. On the technique in general: ELISA stands for enzyme-linked immunosorbent assay.

What is called Kd is the free concentration of one partner at which half of the binding sites on the other are occupied at equilibrium, for simple one-to-one binding. A low value points to tighter binding.

B1: H1-Ab59 (antibody, V domains shown)
VH: EVQLVESGPGLVKPSQTLSLTCTVSGGSVSSGGYSWTWIRQPAGKGLEWIGRIYFTGSTNYNPSLKSRITISVDTSKNQFSLRLSSVTAADTAVYYCAREDDFVWGSYRRFAYFDYWGQGTLVTVSS
VL: EIVMTQSPSSLSASVGDRVNITCQASQDISNYLNWYQQKPGEAPKLLIYGASSLQTGVPSRFSGSGSGTNFIFTISSLQPEDLATYYCQQYDNLPMYTFGQGTKVEIK
notes: IgG1; source: HEK293T, transfected with heavy and light chain plasmids; purified mAbs
As for B1, in test [1], the Kd stood at 14 nM.

B2: TT-Ab13 (antibody, V domains shown)
VH: EVQLVESGAEVKKPGESLRISCKGSGYSFTTYWIGWVRQMPGKGLEWIGIIYAGDSDTRYSPSFQGQVTMPVDKSITTAYLQWSSLKASDTAMYYCARQGDPSSYLTSGFEFWGQGTLVTVSS
VL: DIQMTQSPSTLSASVGDGVTITCRASQSISRWLAWYQQKPGKAPKLLIYQASRLESGVPSRFSGSGSGTEFTLSISSLQPDDFATYYCHQYNSYSQTFGQGTKVEIK
Turning to B2, the binding result with tetanus toxoid is listed as “binds”.

B3: H1-Ab30 (antibody, V domains shown)
VH: EVQLVQSGGGLVQPGGSLRLSCAASGFTFSSYAMSWVRQAPGKGLEWVSTISGSGISTYYADSVKGRFTISRDNSKNTLYLQMNSLRADDTAVYYCAKALATHIVMAGTLDFWGQGTLVTVSS
VL: EIVMTQSPATLSVSPEERATLSCRASQSVTNSLAWYQQKPGQAPRLLIYGASTRATGIPARFSGSGSGTEFTLTISSLQSEDFAVYYCQQYNNWPPLTFGGGTKVEIK
notes: as for B1
As to B3, binding in test [1] was put at a Kd of 0.066 nM.

B4: H1-Ab43 (antibody, V domains shown)
VH: EVQLVESGGNLVQPGGSLTLSCAVSGFAFSNFEANWVRQAPGKGLEWVSYISKSGLTKYYSDSVKGRFTISRDNAKSSLYLQMNSLRAEDTAVYYCVSPIPVAGTMEIYWGQGTLVTVSS
VL: DIQMTQSPATLSVFPGERATLSCRASQSIRSDLAWYQQKPGQPPRLLIYGASTRATGIPARFSGSGSETEFTLTISSLQSEDFAVYYCQQYNNWPPLTFGGGTKVEIK
notes: as for B1
B4 registered a Kd in test [1] of 0.155 nM.

B5: TT-Ab11 (antibody, V domains shown)
VH: QVQLQESGPGLVKPSQTLSLTCNVSDGSISSDGYYWSWLRQHPGKGPEWIGYIHHSGHPYYNPSLKSRVTMSIDTSKNQFALKLSSVTAVDTAMYYCARVRGTGYYPGTLDLWGQGTLVTVSS
VL: EIVLTQSPGTLSLSPGERATLSCRASQSVSSSYFAWYQQIPGQAPRLLIYGTSNRATGIPDRFSGSGSGKDFTLTISRLEPEDFAVYYCQQFGSSPLTFGGGTKVEIK
With B5, the binding result in the test with tetanus toxoid is recorded as “binds”.

B6: TT-Ab2 (antibody, V domains shown)
VH: EVQLVESGAEVKKPGASVKLSCKASGYTVTSDYMHWVRQAPGQGLEWMGIINPSDGSTNYPRKFQGRVTMTRDTSTRTVYMEVSSLRSEDTAVYYCAGGGQRFTFDYWGQGATVTVSS
VL: QSALTQPASVSGSPGQSITISCTGTSGNVGSHNLVSWYQQHPGEAPKLVISDINRRPSGVSNRFSGSKSGNTASLTISGLQAEDEADYFCCSYAGNSNVIFGGGTKLTVL
Regarding B6, the binding result with tetanus toxoid was “binds”.

B7: TT-Ab1 (antibody, V domains shown)
VH: QVQLQESGAEVKNLGASVKVSCKASGYIFTNYGITWVRQAPGQGLEWIGWTTIYNGNTNYARKLQGRVTMTTGTSTRTAYMELRSLKSDDTAMYYCARGLRHYHDGSPLEYWGQETTVTVSS
VL: DIVMTQSPGTLSLSPGERVTLSCRASQSVGSSYLAWYQQKPGQTPRLLVFGASSRATGIPDRFSGSGSGTDFTLTISRLEPEDFAVYYCQLYGNSLITFGQGTRLEIK
For B7, in the test with tetanus toxoid, the binding result is given as “binds”.

B8: H1-Ab32 (antibody, V domains shown)
VH: EVQLVESGGGLVQPGGSLRLSCAASSFTFSNYAMSWVRQAPGKGLEWVSLINSGGGDKYYADSVKGRFIVSRDNSKNALYLQMNSLRAEDTAVYFCARVVGRETFGLVIPIYYFDYWGQGDLVTVSS
VL: EIVLTQSPATLSLSPGERATLSCRASQSVSSFLAWYQQKPGQAPRLLIYDASNRATGVPARFSGSGSGTDFTLTISSLEPEDFAVYYCQQCSNWPPLTFGGGTKVEIK
notes: as for B1
B8: in test [1], binding was put at a Kd of 0.56 nM.

B9: H1-Ab56 (antibody, V domains shown)
VH: EVQLVQSGPGLVKPSETLSLTCTVSGGSISSDYWSWIRQPPGKGLEWIGYIHQNGRTNSNPSLRGRVSMLVDTSESQFSLKLGSVTAADTAVYYCARDQAGIRRSNAFDIWGQGTLVTVSS
VL: DIVMTQSPSSLSASVGDRVTITCRASQSISTYLNWYQQKPGKAPKLLIYAASTLQSGVPSRFSGSASGSEFTLTISSLQPEDFASYYCQQSYDIPQTFGPGTKVEIK
notes: as for B1
In test [1], B9 displayed a Kd of 0.372 nM.

B10: H5-Ab2 (antibody, V domains shown)
VH: EVQLVQSGAEVKKPGSSVKVSCRSSGGPFRSNAISWVRQAPGQGLEWMGGIIAVFGTVEYAQKFQGRVTITADDSRSTVYMELRSLRSDDTAFYYCASAHGYHNYGSRGYFVSWGQGTLVTVSS
VL: DIVMTQSPGTLSLSPGERATLSCRASQSVSSNYLAWYQQKLGQPPRLLIYGASSRATGIPDRFSGSGSGTDFTLTISRLEPEDYAVYYCQQYGSSPHTFGQGTKVEIK
B10: the binding result in test [2] is “binds”.

B11: TT-Ab8 (antibody, V domains shown)
VH: EVQLVESGGGLVQPGGSLRLSCAASGFTFSYYDMNWVRQAPGKGLEWLSYISGSGGVIYYADSVKGRFTISRDNAKNSLFLQMNSLRAEDTAVYYCARDPSPGRLGFFDYWGQGTLVTVSS
VL: EIVMTQSPAILSVSPGERATLSCRASQRVSSNLAWYQQKPGQAPRLLIYGASTRATGIPARFSGSGSGTEFTLTISSLQSEDCAIYYCQQYNNWPRTFGQGTKVEIK
For the molecule B11, the binding result in the test with tetanus toxoid is recorded as “binds”.

B12: H1-Ab41 (antibody, V domains shown)
VH: QVQLQESGGGVVQPERSLRLSCAASGFKFSSYAMHWVRQAPGKGLEWVAVFWSDGTTKYYANSVRGRFTVSRDNSKNMLYLQINSLRAEDTAVYYCARGFLLPYYGSSGYEYFFDFWGQGTTVTVSS
VL: AIGMTQSPESLAVSLGERATINCKSGQSILHSSNNKNYLAWYQQKPGQPPKLVIYWASTRESGVPDRFSGSGSETDFTLTISSLQAEDVAVYYCQQYYSTPSFGGGTKVEIK
notes: as for B1
B12 displayed a Kd in test [1] of 0.0819 nM.

B13: H1-Ab55 (antibody, V domains shown)
VH: EVQLVESGPGLVKPSETLSLTCTVSGGSISSDYWSWIRQAPGKGLEWLAYIHHNGRTNYNPSLGSRVAISIDTSRSQFSLKLGSVTAADTAVYYCARDQTGIRKSNAFDLWGQGTLVTVSS
VL: DIQLTQSPSSLSASVGDRVTITCRASQNIRSYLNWYQQKPGKAPKLLIYGVSTLQNGVPSRFSGSASGSDFTLTISSLQPEDFATYHCQQSYDTPQTFGPGTKVEIK
notes: as for B1
In test [1], B13 had a Kd of 0.467 nM. This Kd is about 5.7-fold higher than that of the molecule before.

B14: TT-Ab5 (antibody, V domains shown)
VH: EVQLVQSGAEVKKPGSSVKVSCTAPGVTFSTYPIDWVRQAPGQGLEWMGGIIPISGSPKYAQKFQGRVAITADGFTNTAYLELSSLRSEDTAVYYCATRESGYDGQFDYWGQGTLVTVSS
VL: QSVLTQPPSASGTPGQRVTISCTGSTSNIGNNYVYWYQQVPGTAPTLLIYRSNQRPSGVPDRFSGSKSGTSASLAISGLRSEDEADYYCATWDDSLGVVFGGGTKLTVL
For B14, the binding result in the test with tetanus toxoid is listed as “binds”.

B15: TT-Ab6 (antibody, V domains shown)
VH: EVQLLESGGGLVRPGGSLRLSCAASGFSFNDHYMTWVRQAPGKGLEWVSYISDGRVTTNYAASVKGRFIISRDNTKKTVYLQMNSLTAEDTAVYYCARVGPWPVMKGAFDSWGQGTLVTVSS
VL: DIQMTQSPGTLSLSPGERATISCRASQSVSSDYLVWYQQKPGQAPRLLIYGASRRATGIPDRFSGSGSGTDFTLTISRLEPEDFAVYYCQQYGSSPLFAFGPGTKVEIK
Turning to B15, the binding result with tetanus toxoid is on record as “binds”.
